Data set [1] has as its target T1, gp350 protein on gp350 expressing CHO cells (Epstein-Barr virus, UniProt P03200).
T1 construct: stably co-transfected with full-length pCAGGS-gp350/220 and pCI-puro vector; expressed in transfected cells; host or cells: CHO cells
In words: Flow cytometry of CHO cells stably expressing EBV gp350. Format: binding. To be noted: concluded from flow cytometry and immunoblot. The method, then:
To assess the ability of purified anti-gp350 mAb to detect surface expression of EBV gp350 protein by flow cytometry, CHO cells that stably express EBV gp350 were harvested and stained with purified anti-gp350 (10 μg/ml), followed by AF488 goat anti-mouse IgG secondary antibody. Flow cytometric analysis was performed on a C-6 FC (BD Biosciences) and data was analyzed using FlowJo Cytometry Analysis software (FlowJo, LLC) as described (47). All the experiments were independently repeated three times.
These novel antibodies were analyzed by flow cytometric analysis for surface expression of gp350 protein on 10^6 CHO cells transfected with 1 μg of pCAGGS-gp350. gp350 expressing cells were resuspended in PBS, stained with anti-gp350 mAb, which detects the gp350 ED, followed by secondary Ab goat anti-mouse conjugated to AF488. Additionally, western blot analysis was conducted on untransfected and pCAGGS-gp350 transfected CHO lysate. Anti-gp350 mAb 72A1 was used as a positive control (1:100) and anti-gp350 hybridoma clone supernatants were used at 1:50, and anti-mouse secondary antibody was used at 1:2000.
Flow cytometric analysis of gp350 and gH/gL specificity was performed. CHO wild type cells and gp350 or gH/gL-expressing CHO cells were stained with primary antibodies, followed by secondary goat anti-mouse or anti-human conjugated to AF488. Unstained cells and cells stained with secondary goat anti-mouse or anti-human conjugated to AF488 alone, were used as negative controls.
On the technique in general: In flow cytometry, cells or beads pass a laser one at a time.

Data set [2] deals with T2, EBV gp350 stably expressed on CHO cells (Epstein-Barr virus, UniProt P03200).
T2 construct: stably co-transfected with full-length pCAGGS-gp350/220 and pCI-puro vector; expressed in transfected cells; host or cells: CHO cells
In words: Epitope mapping by competitive cell binding assay with biotinylated mAbs. To be noted: for competitive binding versus m72A1 and h72A1 (in words): biotinylated antibodies; for antigen binding competition with biotinylated m72A1 (in words) / % inhibition of biotinylated nAbs (biotinylated m72A1): biotinylated m72A1 1 μg/ml; for antigen binding competition with biotinylated m72A1 (in words): unlabeled mAbs 500-67.5 μg/ml. How it is done: To evaluate conformation epitope mapping of the selected mAbs, competitive binding assays were conducted using biotinylated mAbs. A one-step antibody biotinylation kit (MACS Miltenyi Biotec) was used to biotinylate the mAbs. Approximately 1×10^5 CHO cells that stably expressed EBV gp350 were incubated for 2 hours with serially diluted ([…]) unlabeled competitor mAbs and non-specific anti-KSHV gH/gL 54A1 mAb. After being washed with PBS, the cells were incubated for 2 hours in the presence of 1 μg/ml biotinylated mAbs. To determine maximum binding, cells in which the biotinylated mAb was added in the absence of unlabeled mAbs were included in the assay. Cells were washed with PBS, followed by incubation for 1 hour with anti-biotin AF488 at a dilution of 1:500. After the final wash in PBS, cells were resuspended in 1% paraformaldehyde and analyzed by flow cytometry as described above. Percentage of inhibition was calculated as: 100−[(% fluorescent cells with competitor mAb/% fluorescent cells without competitor mAb)×100]. The complete prevention of binding of a biotinylated mAb by its unlabeled counterpart was used as a validation of the assay, as previously described (84).
At least seven unique CD21 binding epitopes on EBV gp350 have been predicted (Table 3).

The next data set deals with goat anti-mouse IgG. In words: ELISA for reactivity to anti-mouse IgG (HAMA testing). The format is binding. To be noted: 10 μg/ml antibody on gp350-coated plates. The source says: ClustalW alignment of heavy chain (i) and light chain (ii) variable region amino acid sequences. Murine 72A1 heavy chain and light chain AA sequences are represented by SEQ ID NOs: 178 and 179, respectively, and humanized 72A1 heavy chain and light chain AA sequences are represented by SEQ ID NOs: 180 and 181, respectively. Regions of identical sequence are represented by *. Regions of similarity are represented by :. […] FIG. 4C: ELISA determining the reactivity of humanized 72A1 to murine IgG. Soluble EBV gp350 protein was used as the target antigen at 0.5 μg/ml. […] Bound antibodies were detected using HRP-conjugated anti-mouse IgG or anti-human IgG (1:2,000). […] Unstained cells and cells stained with secondary goat anti-mouse or anti-human conjugated to AF488 alone were used as negative controls.
ELISA was performed to determine the reactivity of chimeric and humanized antibodies to murine IgG. Soluble EBV gp350 or gH/gL protein was used as the target antigen at 0.5 μg/ml. […] Bound antibodies were detected using HRP-conjugated anti-mouse IgG or anti-human IgG (1:2,000). […] To determine whether chimeric and humanized anti-gp350 retained the ability to recognize linear epitopes on gp350, lysate from CHO WT cells and CHO cell stably expressing gp350 were analyzed by western blot analysis.
For orientation: In an ELISA, binding on a coated surface is turned into a signal by an enzyme label.

Another data set deals with EBV. To be noted: small phase 1 clinical trial; cited from earlier work.

T2 sequence (P03200 whole entry): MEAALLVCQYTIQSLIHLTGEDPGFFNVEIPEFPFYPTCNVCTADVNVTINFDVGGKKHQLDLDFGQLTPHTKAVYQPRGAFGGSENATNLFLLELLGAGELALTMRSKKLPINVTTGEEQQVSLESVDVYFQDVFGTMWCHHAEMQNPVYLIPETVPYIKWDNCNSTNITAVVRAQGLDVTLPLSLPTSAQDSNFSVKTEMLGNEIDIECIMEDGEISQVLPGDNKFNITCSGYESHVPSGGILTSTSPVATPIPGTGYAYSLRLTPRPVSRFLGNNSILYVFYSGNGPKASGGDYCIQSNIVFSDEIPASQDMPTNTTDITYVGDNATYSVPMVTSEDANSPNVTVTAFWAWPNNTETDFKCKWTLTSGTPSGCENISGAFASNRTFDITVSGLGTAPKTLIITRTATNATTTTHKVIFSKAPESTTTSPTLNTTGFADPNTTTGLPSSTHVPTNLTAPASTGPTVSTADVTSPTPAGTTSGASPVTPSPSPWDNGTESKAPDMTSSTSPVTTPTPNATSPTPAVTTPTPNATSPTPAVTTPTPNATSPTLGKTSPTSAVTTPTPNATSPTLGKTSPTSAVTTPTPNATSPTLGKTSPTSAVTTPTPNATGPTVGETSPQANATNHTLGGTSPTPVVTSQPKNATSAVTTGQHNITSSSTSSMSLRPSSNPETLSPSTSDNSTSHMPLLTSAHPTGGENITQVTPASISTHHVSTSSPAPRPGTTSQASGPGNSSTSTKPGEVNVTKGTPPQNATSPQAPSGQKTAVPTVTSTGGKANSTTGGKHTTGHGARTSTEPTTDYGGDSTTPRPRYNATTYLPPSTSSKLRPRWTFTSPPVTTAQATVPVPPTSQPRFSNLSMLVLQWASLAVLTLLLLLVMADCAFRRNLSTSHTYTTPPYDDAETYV
T1 sequence (P03200 whole entry): as above

B1: HB5: murine anti-EBV gp350 mAb, IgG2a κ; SEQ ID NO: 108 / 109; neutralizing (antibody, V domains shown)
VH: AELVRPGASVKISCKAFGYTFTNHNINWVKQRPGQGLDWIGYINPYNDYTSYNQKFKGKATLTVDKSSNTAYMELSSLTSEDSAVYYCARSEGWLRRGAWFAYWGQGTLVTVSAAKTTAPSVYPLAPVCGDTTGSSVTLG
VL: AILSVSPGERVSFSCRASQSIGTSIHWYQQRTNDSPRLLIKYASESISGIPPRFSGSGSGTDFTLSINSVESEDIADYHCQQSNSWPMLTFGAGTKLELKRADAAPTV
modifications: heavy chain mAb HB5; light chain mAb HB5
notes: murine anti-EBV gp350 mAb, IgG2a κ; neutralizing
As for B1, the “type of gp350 epitope recognized (linear / conformational)” value (“type … (linear / conformational)” for short) in data set [1] was “recognized both linear and conformational epitopes”. In data set [2], the “competitive binding versus m72A1 and h72A1 (in words)” value was “bound targets that overlapped with those of both m72A1 and h72A1”; the “antigen binding competition with biotinylated m72A1 (in words)” value (“antigen binding competition” for short) is given as “Antigen binding competition was observed”.

B2: m72A1: EBV anti-gp350 neutralizing mouse antibody purified from HB168 hybridoma (ATCC); SEQ ID NO: 100 / 101 (antibody, V domains shown)
VH: PELVKPGTSMKISCKASGSSFTDYTMNWMKQSHGKNLEWIGLINPYNGGTRYNQKFKGKATLTLDKSSSTAYMEVLSLTSEDSAVYYCAGGLRRVNWFAYWGQGTLVSVSAAKTTPPSVYPLAPGSAAQTNSMVTLG
VL: QAVLTQESALTTSPGETVTLTCRSSTGAVTTSNYANWVQEKPDHLFTGLIGGTNNRVPGVPARFSGSLIGDKAALTITGAQTEDEAIYFCVLWHSNHWVFGGGTKLTVL
modifications: heavy chain mAb 72A1; light chain mAb 72A1
Take B2: the “% inhibition of biotinylated 54A1” value in data set [2] (1 μg/ml biotinylated 54A1, 500 μg/ml unlabeled mAb) is reported as 1%. Besides, the “% inhibition of biotinylated HB1” value in data set [2] (1 μg/ml biotinylated HB1, 500 μg/ml unlabeled mAb) is 82%. Also, the “% inhibition of biotinylated HB5” value in data set [2] (1 μg/ml biotinylated HB5, 500 μg/ml unlabeled mAb) stood at 97%. Further, in data set [2] (1 μg/ml biotinylated HB11, 500 μg/ml unlabeled mAb), the “% inhibition of biotinylated HB11” value is reported as 90%. Besides, the “% inhibition of biotinylated HB17” value in data set [2] (1 μg/ml biotinylated HB17, 500 μg/ml unlabeled mAb) is on record as 37%. Also, in data set [2] (1 μg/ml biotinylated HB20, 500 μg/ml unlabeled mAb), the “% inhibition of biotinylated HB20” value was 31%. Moreover, the “% inhibition of biotinylated h72A1” value in data set [2] (1 μg/ml biotinylated h72A1, 500 μg/ml unlabeled mAb) is listed as 98%. Moreover, the “% inhibition of biotinylated m72A1” value in data set [2] (cross-competition, 1 μg/ml biotinylated m72A1, 500 μg/ml unlabeled mAb) is 98%. In addition, the “% inhibition of biotinylated nAbs (biotinylated m72A1)” value (from here on “% inhibition of biotinylated nAbs”) in data set [2] (unlabeled mAb 67.5 μg/ml) is 97%. Further, in data set [2] (unlabeled mAb 125 μg/ml), the “% inhibition of biotinylated nAbs” value turned out to be 94%. In data set [2] (unlabeled mAb 250 μg/ml), the “% inhibition of biotinylated nAbs” value stood at 93%. The “% inhibition of biotinylated nAbs” value in data set [2] (unlabeled mAb 500 μg/ml) was 91%. In the data set on goat anti-mouse IgG, the “reactivity to goat anti-mouse IgG above the background (1×PBS)” value was found to be 28 fold and the “reactivity to goat-anti-mouse IgG as compared to goat anti-human IgG” value came to 9 fold. For the same molecule, in the data set on EBV, the “patients developing a hypersensitivity reaction” value is reported as “one”, the “patients who developed human anti-mouse Abs (HAMA)” value is given as “all 4” and the “short-term protection against acquiring EBV after transplantation” value is listed as 3 out of 4.

B3: HB20: murine anti-EBV gp350 mAb, IgG2a κ; SEQ ID NO: 128 / 129; neutralizing (antibody, V domains shown)
VH: ELVKPGASVKLSCKASGYTFTSYWIQWVKQRPGQGLEWIGEINPTNGHTNYNEKFKTKATLTVDKSSSTAYMRLSSLTSEDSAVYYCARNLYYYGRPDYWGQGTSVTVSSAKTTAPSVYPLAPVCGDTTGSSVTLG
VL: SSLSASLGDRVTISCRASQDIGNYLNWYQQKPDGTVKLLIYYTSRLHSGVPSRFSGSGSGTDYSLTISNLEQEDIATYFCQQGNALPPTFGGGTKLEIKRADAAPTV
modifications: heavy chain mAb HB20; light chain mAb HB20
notes: as for B1
As for B3, the “type … (linear / conformational)” value in data set [1] was “only recognized conformational epitopes”. In data set [2], the “competitive binding versus m72A1 and h72A1 (in words)” value is “only partial binding to the overlapping targets”; the “antigen binding competition” value is recorded as “Antigen binding competition was observed”.

B4: HB11: murine anti-EBV gp350 mAb, IgG1 κ; SEQ ID NO: 120 / 121; neutralizing (antibody, V domains shown)
VH: PSLVKPSQTLSLTCSVTGDSITSGFWNWIRKFPGNKLEYMGYISYSGSTYYNPSLKSRISITRDTSKNQYYLQLNSVTTEDTATYYCARGNGGNYDWYFDVWGAGTTVTVSSAKTTPPSVYPLAPGSAAQTNSMVTLG
VL: AIMSASLGEKVTMSCRASSSVNFMNWYQQKSDDSPKLLIYYISNLAPGVPARFSGSGSGNSYSLTISGMEGEDAATYYCQQFTSSPSWTFGGGTKLEIKRADAAPTV
modifications: heavy chain mAb HB11; light chain mAb HB11
notes: murine anti-EBV gp350 mAb, IgG1 κ; neutralizing
Consider B4, for which the “type … (linear / conformational)” value in data set [1] is “recognized both linear and conformational epitopes”. In addition, in data set [2], the “competitive binding versus m72A1 and h72A1 (in words)” value was “bound targets that overlapped with those of both m72A1 and h72A1”; the “antigen binding competition” value is “Antigen binding competition was observed”.

(Values after patent US12012446B2, “Epstein-Barr virus antibodies and uses thereof” (priority 2017, dated 2024).)
